The results in this text go back to the RNAGym collection of RNA variant scans (doi:10.1073/pnas.2313332121).

The chains are these.
B1: TPR t1 (parent)
chain: GACCAAUCUGCCCUCAGAGCUCGAGAACAUCUUCGGAUGCAGAGGAGGCAGGCUUCGGUGGCGCGAUAGCGCCAACGUCCUCAACCUCCAAUGCAUCCCACCACAUGAUGAUGCCUGAAGAGCCUUGGUUUUUUG

The series covers variants of B1. The series is described as follows: polymerase ribozyme fitness, log enrichment relative to wild type (log ratio); higher = more active; in vitro selection for triplet polymerase activity. The method, boiled down: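 Input and output libraries were sequenced on Illumina after a single in vitro selection round, run in triplicate on PCR-built, transcribed mutant libraries of each subunit of a heterodimeric triplet polymerase ribozyme. Selection annealed libraries to a biotinylated primer, the partner subunit and triplets, incubated them frozen at −7 °C, then gel-excised extended constructs for streptavidin-bead capture and RT-PCR. Genotypes with ≥10 input reads and ≥1 read per output were kept. Fitness is the logarithm, taken in base 2, of genotype enrichment divided by wild-type enrichment, using inverse-variance-weighted replicate averages.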
C115A U132A: the “polymerase ribozyme fitness (log ratio)” value was 0.0612. On to U116G C123A, for which the “polymerase ribozyme fitness (log ratio)” value was -3.25.

Turning to C115A U129A U131C, the “polymerase ribozyme fitness (log ratio)” value was -0.649. For U109G G110A the value was -3.89; for G127C U129C, -2.22; for U109G U129A, -5.24. Under U112C A119U stands 1.24; under G117C G128A, -5.33. For U112A A118U the value was 0.895; for A121U U133A, 1.83; for C124G G128C, -0.216. Turning to G117U U133A, the “polymerase ribozyme fitness (log ratio)” value was -3.13. As for C124A U134G, the “polymerase ribozyme fitness (log ratio)” value turned out to be 3.41.

On to U116G C124A, for which the “polymerase ribozyme fitness (log ratio)” value worked out at 0.803. For G128U U129C the value was -0.805; for G122A C123A, -0.665; for G117U G135U, -1.25. Under C115U G128U stands -4.06; under G117C A119U, -2.92; under A111C C123G, 0.549. With U112C C124A, the “polymerase ribozyme fitness (log ratio)” value worked out at 0.693. Turning to G113C U130G, the “polymerase ribozyme fitness (log ratio)” value is -2.88. As for C115A U129C, the “polymerase ribozyme fitness (log ratio)” value is -2.62.

As for U116G U125A U133A, the “polymerase ribozyme fitness (log ratio)” value was -4.19. Take G113C A119G: the “polymerase ribozyme fitness (log ratio)” value is -0.737.

On to G113C A119C, for which the “polymerase ribozyme fitness (log ratio)” value was -4.37. G117U G127U: the “polymerase ribozyme fitness (log ratio)” value is -4.77. For C115U U129G the value was -2.15; for U116C U131G, -1.05; for C124A U131A, 1.79. With U129C G135C, the “polymerase ribozyme fitness (log ratio)” value was determined as 0.513.

For U129C G135U, the “polymerase ribozyme fitness (log ratio)” value was -0.0345. For C115U G120A A121C the value was -2.04; for G113C G120C, -2.85; for G128A U131A, -2.44.

In the case of G113A G122C G135C, the “polymerase ribozyme fitness (log ratio)” value was -0.874. For C114G U133A the value was -2.37; for A121G G128A, 0.956; for G113C G122A C123U, -3.7.

As to C124G U126A, the “polymerase ribozyme fitness (log ratio)” value worked out at 1.15. Turning to G117C G120U, the “polymerase ribozyme fitness (log ratio)” value is -4.51. On to G110U U129A, for which the “polymerase ribozyme fitness (log ratio)” value is -2.53. On to C114U, for which the “polymerase ribozyme fitness (log ratio)” value is -1.7. Consider C114A, for which the “polymerase ribozyme fitness (log ratio)” value was -1.39.

Turning to C114G, the “polymerase ribozyme fitness (log ratio)” value was -2.37. Take C114A U131A: the “polymerase ribozyme fitness (log ratio)” value was -0.246. For A111C U112G G113U U116A C124A the value was -3.18.

For the variant U112A A121U U125A, the “polymerase ribozyme fitness (log ratio)” value stood at 1.36. For G113U A119C G122U the value was -4.35.

For A111C U131C, the “polymerase ribozyme fitness (log ratio)” value came to 0.44.

For U112G G120U G122C, the “polymerase ribozyme fitness (log ratio)” value is -1.48. On to C114U G120A C123U, for which the “polymerase ribozyme fitness (log ratio)” value is -1.64. Under U125G U132C stands -0.45; under G113U U134G, -1.78. Under G127A G135U stands -2.16; under G127A U129G, -1.62.

Consider A111C C124U G128C U129A, for which the “polymerase ribozyme fitness (log ratio)” value is -3.3.

C115A G128U U133A: the “polymerase ribozyme fitness (log ratio)” value was -3.05. U112C: the “polymerase ribozyme fitness (log ratio)” value was 1.39.

With U112G, the “polymerase ribozyme fitness (log ratio)” value stood at 0.661. Regarding U112A, the “polymerase ribozyme fitness (log ratio)” value was 1.34. Under C114G G122U stands -2.87.

With C123G U126G, the “polymerase ribozyme fitness (log ratio)” value is -0.0102. Turning to G117C A121G, the “polymerase ribozyme fitness (log ratio)” value was -2.23.

Turning to G117U U131G, the “polymerase ribozyme fitness (log ratio)” value was -4.64. Take U112A U129A: the “polymerase ribozyme fitness (log ratio)” value was 0.929. Under U112A G127A stands 0.262; under A111C G122A, -0.308. For G110A U130C the value was -0.539; for G110A U130A, -0.862; for G113A C123U, -1.32. In the case of G113A C123A, the “polymerase ribozyme fitness (log ratio)” value is -1.45. Take U112A G122C: the “polymerase ribozyme fitness (log ratio)” value is 0.265. As for U112A G122A, the “polymerase ribozyme fitness (log ratio)” value was -0.631. Turning to C114A C124A, the “polymerase ribozyme fitness (log ratio)” value is -1.12. Under C114U U133A stands -1.63; under C123G U130G, 1.48; under G110C C123U, -4.69. As to G120C U129A, the “polymerase ribozyme fitness (log ratio)” value was -1.15. In the case of G110A G120A, the “polymerase ribozyme fitness (log ratio)” value is -1.23. For A111G U126C the value was 0.0972; for C114A U129C, -1.63; for A119C A121U, -1.38. Regarding G117U U130C, the “polymerase ribozyme fitness (log ratio)” value is -2.04.

In the case of C124A G127C, the “polymerase ribozyme fitness (log ratio)” value stood at 0.796. For G110C A121C U130A the value was -3.51.
